Assay [1] has as its target CD8 on human CD8+ cells (PBMC) (human). As to the kind of experiment: capture of unlabelled PBMC on a pipette tip of Strep-Tactin-agarose loaded with 1.5 ug anti-CD8 Fab-TST, elution with D-biotin; flow cytometry with CD8-PE and CD3-APC; 7,6% before selection [continued]. On the technique in general: A flow cytometer gives signals particle by particle.
Assay [2] shares this target. The assay can be described thus: capture of unlabelled PBMC on a pipette tip of Strep-Tactin-agarose loaded with 1.5 ug anti-CD8 Fab-TST; flow cytometry with CD8-PE and CD3-APC; 7,6% before selection [continued].
For assay [3] the target is unchanged. As to the kind of experiment: capture of PBMC pre-incubated with 1.5 ug anti-CD8 Fab-TST / multimerized soluble Strep-Tactin on Biotin-agarose, elution with D-biotin; flow cytometry with CD8-PE and CD3-APC [continued].
Assay [4] has the same target. As to the kind of experiment: capture of PBMC pre-incubated with 1.5 ug anti-CD8 Fab-TST / multimerized soluble Strep-Tactin on Biotin-agarose; flow cytometry with CD8-PE and CD3-APC.

Sequence of CD8 on human CD8+ cells (PBMC) (human) (P01732 22-235): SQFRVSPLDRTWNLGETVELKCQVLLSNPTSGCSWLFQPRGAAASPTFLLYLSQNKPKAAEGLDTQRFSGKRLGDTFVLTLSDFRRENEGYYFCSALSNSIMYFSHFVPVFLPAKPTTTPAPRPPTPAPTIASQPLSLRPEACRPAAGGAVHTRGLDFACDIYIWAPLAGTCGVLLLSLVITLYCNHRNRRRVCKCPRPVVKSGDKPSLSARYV

In the case of “anti-CD8 Fab-fragment carrying the Twin-Strep-Tag at the C-terminus of the heavy chain (catalogue number 6-8003, IBA GmbH)”, the Q1-UL, % CD8 PE-positive cells in the positive (biotin-eluted) fraction in assay [1] was found to be 58.7%; in assay [3], 72.4%. The values for the Q1-UL, % CD8 PE-positive cells in the wash through fraction in assay [2] and in assay [4] were 2.4% and 0.9%, respectively.

For the origin of these results see patent publication US20170052176A1.
